Measured values: the nanobody polyreactivity screen of Harvey et al. (2022)

Experiment: yeast display, Sf9 membrane polyspecificity reagent, FACS + sequencing; frameworks hold sequencing errors
Summary of the method: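 Galactose induction of a Saccharomyces cerevisiae BJ5465 synthetic nanobody display library ran 36–48 hours. The cells were then stained for 1 hour at 4 °C with 10% biotinylated, detergent-solubilized Sf9 membrane reagent, pulled down on streptavidin microbeads and FACS-sorted into low and high (top ~1%) gates on expression and reagent-binding fluorescence. Labels for polyreactivity follow the gate of origin.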

Row | Sequence | polyreactivity (PSR sort gate)
1 | QVQLVDSGGGLVQAGGSLRLSCAASGSIFEINAMGWYRQAPGKERELVAVITDSGSTYYEDSVKGRFTISRDNAKNTVDLQMNSLKPEDTAVYYCAAEYSLLFFLMDYWGQGTQVTVSS | low polyreactivity
2 | QVQLVDSGGGLVQAGGSLRLSCAASGFIFDVYAMGGYRQAPGKERQLVAAISVSSTNYADSVKGRFTISRDNAKNTVYLQMNSLKPEDTAVSYCAADTYTYFLASYLYGQYDYWGQGTQVTVSW | low polyreactivity
3 | QGQLVESGGGLVQAGGSLRLSCAASGRIFRANAMGWYRQAPGKERELVAAIDASGGSTYYADSVKGRFTISRDNAKNTVYLQMNSLKPEDTAVYDCAADRGFLRSFAPGNMDYWGQGTQVTVSS | low polyreactivity
4 | QVQLVESGGGLVQAGGSLRLSCAASGSIFKRNDMGWYRQAPGKDRELVASISSGGSTHYADSVKGRFTISRDNAKNTVSLQMNSLKPEDTAVYYCAATSIRWSVGSFRRDYWGQGTQVTVSS | low polyreactivity
5 | QVQLVESGGGLVQAGGSLRLSCAASGFIFRDNAMGWYRQAPGKERELVAAISKSGGRTYYADSVKGRFTISRDNAKNTVYLLMNSLKPEDTAVYYCAADTYYNLGNYWGQGTQVTVSS | high polyreactivity
6 | QVQLVESGGGLVQAGGSLRLSCAASGFIFYDYDMGWYRQAPGKERELVAAITYSGGSTYYADSVKGRFTISRDNAKNSVYLQMNSLKPEDTAVYYCAAVKSRYAEAVDYYYWGQGTQVNVSS | low polyreactivity
7 | QVQLVESGGGLVQAGGSLRLSCAASGSTLDGYGMRWYRQAPGKERELVAVITIGGGRTYYADSVKGRFTISRDNAKNTVYLQMNSLKPEDTAVSYCAAKGWRRYYIGDYWGQGTQVTVSS | high polyreactivity
8 | QVQLQESGGGLVQAGGSLRLTCAASGNISVTGFMGCYRQAPGKERELVASIGIGGTTYYADSVKGRFSISRDNAKNTVYLEMHSLKPEDTAVYYCAARYLYYAYSYWGQGTQVTVSS | low polyreactivity
9 | QVQLVESGGALVQAGGSLRLSCAASGPIFGVYAMGWYRQAPGKERELVAAITYTGASTYYADSVKGRFTISRDNAKNTVYLQMNSLKPEDTAVYYCAGRLWRRSRFDYWGQGTQVTVSS | high polyreactivity
10 | QVQLVESGGGLVQAGGSLRLSCAASGRISQIYAMGWYRQAPGKERELVASISSSGSRTYYADSVKGRFTISRDNAKNTVYLQMNSLKPEDTAVYYCAARWWARSRGPYDYWGQGTQVTVSS | high polyreactivity
11 | QVQLVESGGGLVQAGGSLRLSCAASGRTFYGYAMGRYRQAPGKERELVAAISSGGSTYYADSVKGRFTISRDNAKNTVYLQMNSLKPEDTAVYDCAAVKWRRHGGSSEYDYWGQGTQVTVSS | high polyreactivity
12 | QVQLVESGGGLVQAGGSLRLSCAASGSIFGYYAMGWYRQAPGKERELVAAIWRGDNTYYADSVKGRFTISRDNAKNTVYLQMNSLKPEDTAVYYCAARYWSRRIFREGYWGQGTQVTVSS | low polyreactivity
13 | QVQLVESGGGLVQAGGSLRLSCAASGRIFSHYAMGLYREAPGKERELVAAITGSGGITYYADSVKGRFTISRDKSKNTVFLQMISLKPEDTAVYYCAADGLSKFDYLGQGTQVTVSS | low polyreactivity
14 | QVQLVDSGGGLVQAGGSLRLSCAASGSTRRGYAMGWYRQAPGKERELVASISRRGGSTYYADSVKGRFTISRDNAKNTVYLQMKSLKTEVTAVYYCAATGRRGYGYGYWGQGTQVTVSS | high polyreactivity
15 | QVQLVESGGVLVQAGGSLRISCAASGIIFSYYAMGWYRQAPGKERELVAAIYRRGTSTYYADSVKGRFTISRDNAKNTVYLQMNSLKPEDTAVYYCNKSPYYTVWSTRCNQFSRFYYWGQGTQVTVSS | high polyreactivity
16 | QVQLVESGGGLVQAGGSLRLSCAASGRTLARNAMGWDRQAPGKEWELVASINGRTTRTYYADSVKGRFTISRDNANNTVYLQRNSLKPEDTAVYYCAADPPGYVYGKRYYWGQGTQVTVSS | high polyreactivity
17 | QVQLVESGGGLVQAGGSLRYSCAASGLIFQHNALGWYRPAPGKERELVAAISGSGGSTYYADSVKGRFTISRDNAKNTVYLQMNSLKPEDTAVYYCATDDRYYRRYYWGQGTQVTVAS | high polyreactivity
18 | QVQLVESGGGLVQAGGSLRLSCAASGSIFVTNGMGWYRQAPGKERELVAVISWGGGNTYYADSVKGRFTISRDNAKNTVYLLMNNLKPEDTAVYYCAVELYWDYYFTYGYWGKGTQVTVSS | low polyreactivity
19 | QVQLVESGGGLVQAGGSLRLSCAASGFTCKYYTMGWYRQAPGKERELVAAISKSGDITYYADSVKGRFTISRDNAKNTVYLQMNSMKPEDTAVYYCAVVPSSTYHAYDYWGQGTQVTVSS | high polyreactivity
20 | QVQLVESGGGLVQAGGSLRLSCAASGRIFDKNAMGWYRQAPGKERELVAAISGGGRTYYADSVKGRFTISRDNAKNTVYLLMNSLKPEDTAVYYCNVPYYYTRGSYGYWGQGTQVTVSS | low polyreactivity
21 | QVQLVESGGGLVQAGGSLRLSCAASGRIFTYYAMGWYRQAPGKERELVAAISRRGGSTYYADSVKGRFTISRDNAKNTVYLQMNSLKPEDTAVYYCNAPTKAGGSHYWGQGTQVTVSS | high polyreactivity
22 | QVQLVESGGGLVQAGGSLRLSCAASGSTFYAYAMGWYRQAPGKERELVARIRWRGGRTYYADSVKGRFTISRDNAKNTVYLRMNSLKPEDTAVYYCNRGYYSYYGRYYYWGQGTQVTVSS | high polyreactivity

Row | Sequence | polyreactivity (PSR sort gate)
23 | QVQLVESGGGLFQAGGSLRLSCAASGSTFRHYDMAWYRQAPGKERELVAVISWGGTSTYYADSVKGRFTISRDNAKNTVYLQMHSLKPEDTGVYYCNKAYFPIFKGYEMYYWGQGTQVTVST | low polyreactivity
24 | QVQLVESGGGLVQAGGSLRLICAASGSTFGAYAMGWYRQAPGKERELVAAISRSGGTTYYADSVKGRFTISRDNSKNTVYLQMNSLKPEDTEVYYCAADWLNSVPYNYWGQGTLVTVSS | low polyreactivity
25 | QVQLVESGGGLVQAGGSLRLSCAASGFTFGANVMGWYRQAPGKERELVAAINTRGSRTYYADSVKGRFTISRDHAKNTVYLQMNRLKQEDTAVYYCAAALRKEYDYWGQGTQVTVSS | high polyreactivity
26 | QVQLVESGGGLVQAGGSLRLSCDASGSIFDLNAMGWYRQAPGKERELVAAISSGGGTNYADSVKGRFTISRDNAKNTVYLQMYSLKPEDTAVYYCAVGSTRDGVYLGQGTQVTVSS | high polyreactivity
27 | QVQLVESGGGLVQAGGSLRLSCAASGRIFVINAMGWYRQAPGKERELVAAISQSGGSTYYADSVKGRFTISRDNAKNNVYLQMNSLKPEDTAVYYCNALSNVPYDYWGQGTQVTVSS | low polyreactivity
28 | QVQLEESGGGLVQAGGRLRLSCAASGSTFRNYAMGWNITAAGKERELVAAISTNGGRTFYADSVKGRFTISRDNAKNTVYLQMNSLKPEDNAVYYCAAEYGLYAPGYYYWGQGTQVTVSS | low polyreactivity
29 | QVQLVESGGGLVQAGGSLRLSCAASGIISYLNAMGWYRQAPGKERELVAAITGGGRTNYADSVKGRFTFSRDNAKNTVYLQMNSLKPEDTAVYYCNAYSSNYRYWARRGRPYNYWGQGTQVTVSS | high polyreactivity
30 | QDQLVESGGGLVQAGGSLRLSCAASGFTFGSYAMGWYRQAHGKERELVAAITASGGSTYYADSVKGRFTISRDNAKNTVYLQMNSLKPEDTAFYYCATRRYDGVAAFRMYYWGQGTQVTVSS | high polyreactivity
31 | QVQLVESGGGLVQAGGSLRLSCAASGFTFYFYAMGWYRQAPGKERELVAAISRGGSTTYADSVKGRFTISRDNAKNTVYLQMNSLIPEDTAVSYCKADIYTWFQIGGYQYDYWGQGTQVTVSS | low polyreactivity
32 | QVQLVESGGGLVQAGGSLRLSCAASGSILASYAMGWYRPAPGKERELVAAISWNGARSYYADSVKGRFTISRDNAKNTVYLQMNSLKPEDTAVYYCAGVRVGRTTFDYWGQGTQVTVSS | low polyreactivity
33 | QVQLVESGGGLVQAGGSLRLSCAASGSILADYAMGWDRQAPGKERELVAGISSGGSTNYADSVKGRFTISRDNAKNTVYLQMNSLKPEDTAVYYCNADQDFLFIGYLFDYWGQGTQVTVSS | low polyreactivity
34 | QVQLVESGGGLVQAGGSLRLSCAASGRIFTYNAMGWYRQAPGKERELVAAISTRGGTTRYADSVKGRFTISRDNAKNTVYLQMNSLKPEDTAVYYCNAVSRGSRWDGLVRLDYWGQGTQVTVSS | high polyreactivity
35 | QVQLVESGGGLVQAGGSLRLSCAASASTFWFNVMGWYRQATGKETELDAVITWTGGSTSYADSVKGRFTISRDNAKNTVYLQMNSLKPEDTAVYYCATPVKFGGVPYRYGYWGQGTQVTVSS | low polyreactivity
36 | QVQLVESGGGLVQAGGSLRLTCAASGSIFVQNAMGWYRQEPGKERELVATISRRGGSTYYADSVKGRFTISRDNAKNTVYLQMNSLKPEDPAVYYSAARKLRTLWGYWGQGTQVTVSS | high polyreactivity
37 | QVQLVESGGGLVQAGGSLRLSCAASGLTFVNYAMGWYRQAPGKERELVATISKTGGSTYYADSVKGRFTISRDNAKNTVYLQMNSLKPEDTAVYYCAARRARRSGYYYWGQGTQVTVSS | high polyreactivity
38 | QVQLVESGGGLVQAGGSLRLTCGASGRIFSFYVMGWYRQAPGKERELVAAISLSGGSTYYADSVKGRFTISRDNAKNTVYLQMNSLKPEDTAVYYCAARYASPRYKSKMDYWGQGTQVTVSS | high polyreactivity
39 | QVQLVESGGGLVQAGGSLRLSCAASGRIFWYYAMGWYRQAPGKERELVAAISRSGGSTYYADSVKGRFTISRDNAKNTVYLQMNSLKPEDTAVYYCAAGARAFDDDSWGQGTQVTVSS | low polyreactivity
40 | QVQLVESGGGLVQAGGSLRLSCAASGFIFIAYVMGWYRQAPGKERELVAAITRSGASTYYADSVKGRFTISRDNAKNTVYLQMNSLKPVDTAVYYCAARGAYSFYGYYYWGQGTQVTVSS | high polyreactivity
41 | QVQLVESGGGLVQAGGSLSLSCAASGRIIGFNAMGWYRQAPGKERELVASIRTTGGSTRYADSVKGRFTISRDNAKNTVYLQMNSLKPEDTAVYYCAARWGKTLWQYNYWGQGTQVTVSS | high polyreactivity
42 | QVQLVESGGGLVQAGGSLRLSCAASGSIFNWNAKAWYRQAPVKERELVAAITGSGTSTYYADSVKGRFTISPDYAKNTVYLQMNSLKPQDTAVYYCAVTRRSRYGYWGQGTQVTVSS | high polyreactivity
43 | QVQLVESGGGLLQAGGSLRLSCAASGRIFNINAMGWYRQAPGKERELVAAISSGDSTYYADSVKGRFTISRDNAKNTVYLQMNSLKPEDSAVDYCNKDLYIWGHGTQVTVSS | low polyreactivity
